According to patent US20180185459A1 (PORTOLA PHARMACEUTICALS, published 2018):
Where a chain is given by its changes, count along the chain named. One block for each binder: values may come before it.

Columns and labels:
[1] = molecular target: T1, cofactor factor Va of the prothrombinase complex (endogenous, in human plasma), P12259
T1 chain 1: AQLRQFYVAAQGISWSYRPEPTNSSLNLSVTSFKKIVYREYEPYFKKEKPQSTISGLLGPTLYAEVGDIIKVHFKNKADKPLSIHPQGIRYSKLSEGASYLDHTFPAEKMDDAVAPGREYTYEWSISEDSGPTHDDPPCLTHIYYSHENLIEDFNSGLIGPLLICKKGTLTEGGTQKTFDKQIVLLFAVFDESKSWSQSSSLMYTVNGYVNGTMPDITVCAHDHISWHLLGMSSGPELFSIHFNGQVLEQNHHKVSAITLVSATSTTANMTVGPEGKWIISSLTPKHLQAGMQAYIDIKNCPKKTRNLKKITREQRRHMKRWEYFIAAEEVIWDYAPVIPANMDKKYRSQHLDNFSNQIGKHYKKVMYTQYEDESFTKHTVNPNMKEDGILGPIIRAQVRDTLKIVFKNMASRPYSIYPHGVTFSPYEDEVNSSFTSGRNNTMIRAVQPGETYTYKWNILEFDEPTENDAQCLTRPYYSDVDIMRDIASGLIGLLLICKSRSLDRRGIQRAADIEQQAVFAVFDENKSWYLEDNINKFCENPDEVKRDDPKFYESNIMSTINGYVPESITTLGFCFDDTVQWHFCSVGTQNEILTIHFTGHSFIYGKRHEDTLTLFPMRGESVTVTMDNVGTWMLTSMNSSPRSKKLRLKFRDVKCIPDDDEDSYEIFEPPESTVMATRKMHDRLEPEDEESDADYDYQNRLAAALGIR
T1 chain 2: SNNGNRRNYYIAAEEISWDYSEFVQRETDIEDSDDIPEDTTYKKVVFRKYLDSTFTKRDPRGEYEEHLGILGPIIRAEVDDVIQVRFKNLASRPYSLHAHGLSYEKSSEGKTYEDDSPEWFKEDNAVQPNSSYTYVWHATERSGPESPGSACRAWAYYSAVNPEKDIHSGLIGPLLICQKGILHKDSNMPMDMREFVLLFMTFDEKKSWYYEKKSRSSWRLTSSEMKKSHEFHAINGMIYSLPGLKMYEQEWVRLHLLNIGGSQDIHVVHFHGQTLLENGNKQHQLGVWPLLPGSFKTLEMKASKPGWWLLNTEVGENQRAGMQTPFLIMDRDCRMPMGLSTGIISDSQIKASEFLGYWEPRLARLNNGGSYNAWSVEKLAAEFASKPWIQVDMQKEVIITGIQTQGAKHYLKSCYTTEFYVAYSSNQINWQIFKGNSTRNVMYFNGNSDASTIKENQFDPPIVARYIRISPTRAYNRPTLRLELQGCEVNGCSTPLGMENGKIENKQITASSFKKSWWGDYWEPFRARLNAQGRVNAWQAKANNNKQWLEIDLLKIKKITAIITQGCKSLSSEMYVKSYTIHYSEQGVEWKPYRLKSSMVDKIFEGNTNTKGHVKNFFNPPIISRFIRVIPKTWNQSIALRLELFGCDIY

[2] = molecular target: ATIII-fondaparinux complex (human antithrombin III with fondaparinux bound) (human, UniProt P01008 33-464, non-covalently bound fondaparinux (synthetic pentasaccharide)); experiment: cell-based or functional assay
Sequence of ATIII-fondaparinux complex (human antithrombin III with fondaparinux bound) (P01008 33-464 limits assumed, one chain of several): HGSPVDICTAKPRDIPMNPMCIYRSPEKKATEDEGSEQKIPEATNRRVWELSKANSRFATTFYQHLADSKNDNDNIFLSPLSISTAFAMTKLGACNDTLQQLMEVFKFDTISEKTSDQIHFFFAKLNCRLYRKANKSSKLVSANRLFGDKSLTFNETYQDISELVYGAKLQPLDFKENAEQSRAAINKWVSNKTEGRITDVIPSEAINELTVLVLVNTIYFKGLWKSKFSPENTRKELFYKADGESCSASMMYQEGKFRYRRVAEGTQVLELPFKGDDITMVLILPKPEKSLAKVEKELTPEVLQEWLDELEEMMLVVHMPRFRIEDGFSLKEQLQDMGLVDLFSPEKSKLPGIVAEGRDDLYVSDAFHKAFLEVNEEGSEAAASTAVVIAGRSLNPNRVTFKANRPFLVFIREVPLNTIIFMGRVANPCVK

B1: EGR-Xa, active site inhibited full length human fXa (human plasma derived) (protein)
chain 1: ANSFLEEMKKGHLERECMEETCSYEEAREVFEDSDKTNEFWNKYKDGDQCETSPCQNQGKCKDGLGEYTCTCLEGFEGKNCELFTRKLCSLDNGDCDQFCHEEQNSVVCSCARGYTLADNGKACIPTGPYPCGKQTLER
chain 2: IVGGQECKDGECPWQALLINEENEGFCGGTILSEFYILTAAHCLYQAKRFKVRVGDRNTEQEEGGEAVHEVEVVIKHNRFTKETYDFDIAVLRLKTPITFRMNVAPACLPERDWAESTLMTQKTGIVSGFGRTHEKGRQSTRLKMLEVPYVDRNSCKLSSSFIITQNMFCAGYDTKQEDACQGDSGGPHVTRFKDTYFVTGIVSWGEGCARKGKYGIYTKVTAFLKWIDRSMKTRGLPKAKSHAPEVITSSPLK
IIa formation (RFU) in tissue factor-initiated thrombin generation in human plasma against EGR-Xa concentration [1]: circles: falls steeply from about 380,000 RFU at 0 nM to about 180,000 and about 85,000 RFU at the next points, below 50,000 RFU by about 100 nM and about 10,000 RFU at about 500 nM

IC50 (read off the curve): r-Antidote concentration that halves kiapp of fXa inhibition by the ATIII-fondaparinux complex [2]: ~100 nM
B2: r-Antidote (processed two-chain polypeptide, human factor Xa triple mutant after removal of the -RKRRKR- linker) (other)
chain 1: ANSFLFWNKYKDGDQCETSPCQNQGKCKDGLGEYTCTCLEGFEGKNCELFTRKLCSLDNGDCDQFCHEEQNSVVCSCARGYTLADNGKACIPTGPYPCGKQTLER
chain 2: B1 chain 2 with S185A
